Values quoted from earlier work as cited in publication PMC5606850.

Molecular target: HTLV-1 nucleocapsid NTD (Human T-cell leukemia virus type 1) (UniProt P03345)
Sequence (P03345 345-395): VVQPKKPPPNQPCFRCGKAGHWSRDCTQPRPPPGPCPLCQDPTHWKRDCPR

Sequence of HTLV-1 nucleocapsid CTD (P03345 396-429): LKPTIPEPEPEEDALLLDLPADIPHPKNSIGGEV

HTLV-1 nucleocapsid CTD (from UniProt P03345)
Kd: 200 nM
